Source: US8697714B2, “Quinazolinone based fluorogenic probes” (Nanyang Technological University, priority 2010, dated 2014)

B1: MAO A (Homo sapiens) (protein)
chain: MENQEKASIAGHMFDVVVIGGGISGLSAAKLLTEYGVSVLVLEARDRVGGRTYTIRNEHVDYVDVGGAYVGPTQNRILRLSKELGIETYKVNVSERLVQYVKGKTYPFRGAFPPVWNPIAYLDYNNLWRTIDNMGKEIPTDAPWEAQHADKWDKMTMKELIDKICWTKTARRFAYLFVNINVTSEPHEVSALWFLWYVKQCGGTTRIFSVTNGGQERKFVGGSGQVSERIMDLLGDQVKLNHPVTHVDQSSDNIIIETLNHEHYECKYVINAIPPTLTAKIHFRPELPAERNQLIQRLPMGAVIKCMMYYKEAFWKKKDYCGCMIIEDEDAPISITLDDTKPDGSLPAIMGFILARKADRLAKLHKEIRKKKICELYAKVLGSQEALHPVHYEEKNWCEEQYSGGCYTAYFPPGIMTQYGRVIRQPVGRIFFAGTETATKWSGYMEGAVEAGERAAREVLNGLGKVTEKDIWVQEPESKDVPAVEITHTFWERNLPSVSGLLKIIGFSTSVTALGFVLYKYKLLPRS
notes: purchased Sigma Aldrich
B2: MAO B (Homo sapiens) (protein)
chain: MSNKCDVVVVGGGISGMAAAKLLHDSGLNVVVLEARDRVGGRTYTLRNQKVKYVDLGGSYVGPTQNRILRLAKELGLETYKVNEVERLIHHVKGKSYPFRGPFPPVWNPITYLDHNNFWRTMDDMGREIPSDAPWKAPLAEEWDNMTMKELLDKLCWTESAKQLATLFVNLCVTAETHEVSALWFLWYVKQCGGTTRIISTTNGGQERKFVGGSGQVSERIMDLLGDRVKLERPVIYIDQTRENVLVETLNHEMYEAKYVISAIPPTLGMKIHFNPPLPMMRNQMITRVPLGSVIKCIVYYKEPFWRKKDYCGTMIIDGEEAPVAYTLDDTKPEGNYAAIMGFILAHKARKLARLTKEERLKKLCELYAKVLGSLEALEPVHYEEKNWCEEQYSGGCYTTYFPPGILTQYGRVLRQPVDRIYFAGTETATHWSGYMEGAVEAGERAAREILHAMGKIPEDEIWQSEPESVDVPAQPITTTFLERHLPSVPGLLRLIGLTTIFSATALGFLAHKRGLLVRV
notes: purchased Sigma Aldrich

What was measured:
[1] = substrate: NCCCOc1ccc(Cl)cc1-c1nc2ccc(Cl)cc2c(=O)[nH]1; assay: Enzymatic kinetics of MAO-HPQ 1 oxidation (Lineweaver-Burk plot), MAO A; assay type: biochemical; conditions: other: MAO A, Tris-buffer 100 mM pH 7.90, 25° C., pH 7.9
Procedure: (§1) The enzyme kinetics was carried out in Tris-buffer (100 mM, pH 7.90) at 25° C. The enzymatic oxidation of fluorogenic substrate MAO-HPQ 1 was monitored in Varian Cary eclipse Fluorescence spectrophotometer. To a series of different MAO-HPQ 1 substrate concentration (ranged from 0˜250 μM) were added a solution of MAO A or MAO B enzyme with final concentration of […] was added to adjust the final volume to 100 μl. The rate of enzymatic oxidation was monitored with the increase of fluorescent enhancement at 530 nm. The values of the enzyme kinetic parameters (Km and Kcat) were determined from the standard Lineweaver-Burk plot, the double-reciprocal plot of the reaction rate versus MAO-HPQ 1 concentration.
(§2) Measurement of the fluorescent signal at different substrate concentrations provided the Michaelis-Menten kinetics constants.

[2] = substrate: NCCCOc1ccc(Cl)cc1-c1nc2ccc(Cl)cc2c(=O)[nH]1; assay: Enzymatic kinetics of MAO-HPQ 1 oxidation (Lineweaver-Burk plot), MAO B; assay type: biochemical; conditions: other: MAO B, Tris-buffer 100 mM pH 7.90, 25° C., pH 7.9
Procedure: as §1, §2

Protein	Km [1] [µM]	kcat [1] [s⁻¹]	Km [2] [µM]	kcat [2] [s⁻¹]	kcat/Km [2] [M⁻¹ s⁻¹]
B1	146.1 ± 7.21	0.163 ± 0.00817	–	–	–
B2	–	–	106.8 ± 5.06	0.141 ± 0.007	1320
